{"source": "patent US20240270821A1", "about": "“GIP/GLP1/GCG TRI-RECEPTOR AGONISTS AND USES THEREOF” (priority 2023, published 2024)", "note": "Starred links: 1 amine or outer side, 2 acyl side, 3 side chain; linkers in the order of their positions; H or OH if unused. Non-standard residues stand in square brackets, D forms with d. Groups on a side chain read outwards from the residue. No end group written: not given here. *: point of attachment. C20 diacid = O=C(O)CCCCCCCCCCCCCCCCCCC(=O)*; Phe(4-CN) = N#Cc1ccc(C[C@H](N)C(=O)O)cc1; αMePhe(2-F) = C[C@](N)(Cc1ccccc1F)C(=O)O; γGlu = O=C(O)[C@H](CCC(=O)[*:2])N[*:1]; αMeL = CC(C)C[C@](C)(N)C(=O)O; AEEA = NCCOCCOCC(=O)O; Aib = CC(C)(N)C(=O)O", "data": [{"target": "hGLP-1R (Homo sapiens, UniProt P43220)", "sequence (P43220 24-463)": "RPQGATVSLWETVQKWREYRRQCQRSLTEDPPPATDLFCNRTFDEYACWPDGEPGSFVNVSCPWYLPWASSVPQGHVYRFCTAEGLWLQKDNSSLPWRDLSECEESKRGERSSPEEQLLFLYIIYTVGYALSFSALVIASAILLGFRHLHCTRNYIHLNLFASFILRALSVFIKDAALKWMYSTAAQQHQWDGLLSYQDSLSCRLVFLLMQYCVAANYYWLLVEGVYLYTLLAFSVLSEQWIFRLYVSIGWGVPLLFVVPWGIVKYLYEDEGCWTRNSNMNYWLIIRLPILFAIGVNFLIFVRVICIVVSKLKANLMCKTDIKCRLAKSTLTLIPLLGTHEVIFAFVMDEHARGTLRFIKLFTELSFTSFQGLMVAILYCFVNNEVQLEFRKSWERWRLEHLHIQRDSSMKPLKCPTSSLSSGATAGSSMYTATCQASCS", "assay": "cell-based or functional assay", "units": {"Relative cAMP EC50": "nM", "cAMP Rel EC50 (1% HSA)": "nM"}, "values": [{"binder": "Y[Aib]QGT[αMePhe(2-F)]TSDYSKLLDKIAQKAFIEYLIEGGPSSGEPPPSEG-NH2 (not fully specified (residue 20))", "note": "[Example 330]", "Relative cAMP EC50": 0.63, "cAMP Rel EC50 (1% HSA)": 91.8}, {"binder": "Y[Aib]QGT[αMePhe(2-F)]TSDYSILLDKQAAKAFIEYLIEGGPSSGEPPPSEG-NH2 (not fully specified (residue 20))", "note": "[Example 331]", "Relative cAMP EC50": 0.663, "cAMP Rel EC50 (1% HSA)": 207}, {"binder": "Y[Aib]QGTFTSDYSI[αMeL]LDKQAAK([AEEA-AEEA-γGlu-C20 diacid])QFVEWLIAGGPSSGEPPPAEG-NH2", "note": "[Example 332]", "Relative cAMP EC50": 1.24, "cAMP Rel EC50 (1% HSA)": 298}, {"binder": "Y[Aib]QGTFTSDYSI[αMeL]LDKQAAK([AEEA-AEEA-γGlu-C20 diacid])QFVEWLIA[Aib]GPSSGEPPPGEG-NH2", "note": "[Example 333]", "Relative cAMP EC50": 0.705, "cAMP Rel EC50 (1% HSA)": 182}, {"binder": "Y[Aib]QGTFTSDYSI[αMeL]LDKQAAKQFVEWLIA[Aib]GPSSGEPPPGSG-NH2 (not fully specified (residue 20))", "note": "[Example 335]", "Relative cAMP EC50": 0.461, "cAMP Rel EC50 (1% HSA)": 150}, {"binder": "Y[Aib]QGTFTSDYSI[αMeL]LDKQAAKQFVEWLIA[Aib]GPSSGEPPPGTG-NH2 (not fully specified (residue 20))", "note": "[Example 336]", "Relative cAMP EC50": 0.921, "cAMP Rel EC50 (1% HSA)": 227}, {"binder": "Y[Aib]QGTFTSDYSK[αMeL]LDKKAQQAFIEYLIAGGPSSGEPPPSGD-NH2 (not fully specified (residue 17))", "note": "[Example 337]", "Relative cAMP EC50": 0.686, "cAMP Rel EC50 (1% HSA)": 272}, {"binder": "Y[Aib]QGT[αMePhe(2-F)]TSDYSKLLDKIAQKAFIQYLIEGGPSSGEPPPSEG-NH2 (not fully specified (residue 20))", "note": "[Example 338]", "Relative cAMP EC50": 1.22, "cAMP Rel EC50 (1% HSA)": 172}, {"binder": "Y[Aib]QGT[αMePhe(2-F)]TSDYSKLLDKIAQKAFIEYLIEGGPSSGAPPPSEG-NH2 (not fully specified (residue 20))", "note": "[Example 339]", "Relative cAMP EC50": 1.06, "cAMP Rel EC50 (1% HSA)": 192}, {"binder": "Y[Aib]QGT[αMePhe(2-F)]TSDYSILLDKQAAKEFIEYLIEGGPSSGAPPPSEG-NH2 (not fully specified (residue 20))", "note": "[Example 340]", "Relative cAMP EC50": 0.648, "cAMP Rel EC50 (1% HSA)": 246}, {"binder": "Y[Aib]QGT[αMePhe(2-F)]TSD[Phe(4-CN)]SILLDKQAQKAFIQYLLEGGPSSGEPPPSEG-NH2 (not fully specified (residue 20))", "note": "[Example 341]", "Relative cAMP EC50": 1.62, "cAMP Rel EC50 (1% HSA)": 395}]}, {"target": "T1, human GIP receptor (human) (UniProt P48546)", "T1 sequence (looked up)": "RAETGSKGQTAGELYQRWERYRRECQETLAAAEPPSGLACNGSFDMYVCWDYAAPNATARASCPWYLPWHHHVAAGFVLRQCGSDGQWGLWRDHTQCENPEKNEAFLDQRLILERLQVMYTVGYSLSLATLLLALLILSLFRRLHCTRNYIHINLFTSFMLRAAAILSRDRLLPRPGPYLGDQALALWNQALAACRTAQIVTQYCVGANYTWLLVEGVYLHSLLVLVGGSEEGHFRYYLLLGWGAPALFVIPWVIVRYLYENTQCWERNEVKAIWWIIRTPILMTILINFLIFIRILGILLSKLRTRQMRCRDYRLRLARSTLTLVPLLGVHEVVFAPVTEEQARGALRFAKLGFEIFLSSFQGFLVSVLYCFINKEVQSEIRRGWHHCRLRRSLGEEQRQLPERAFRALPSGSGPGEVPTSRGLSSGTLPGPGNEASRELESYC", "assay": "cell-based or functional assay", "units": {"Relative cAMP EC50": "nM", "cAMP Rel EC50 (1% HSA)": "nM"}, "values": [{"binder": "Y[Aib]QGT[αMePhe(2-F)]TSDYSKLLDKIAQKAFIEYLIEGGPSSGEPPPSEG-NH2 (not fully specified (residue 20))", "note": "[Example 330]", "Relative cAMP EC50": 0.0783, "cAMP Rel EC50 (1% HSA)": 7.33}, {"binder": "Y[Aib]QGT[αMePhe(2-F)]TSDYSILLDKQAAKAFIEYLIEGGPSSGEPPPSEG-NH2 (not fully specified (residue 20))", "note": "[Example 331]", "Relative cAMP EC50": 0.148, "cAMP Rel EC50 (1% HSA)": 47.5}, {"binder": "Y[Aib]QGTFTSDYSI[αMeL]LDKQAAK([AEEA-AEEA-γGlu-C20 diacid])QFVEWLIAGGPSSGEPPPAEG-NH2", "note": "[Example 332]", "Relative cAMP EC50": 0.413, "cAMP Rel EC50 (1% HSA)": 78.2}, {"binder": "Y[Aib]QGTFTSDYSI[αMeL]LDKQAAK([AEEA-AEEA-γGlu-C20 diacid])QFVEWLIA[Aib]GPSSGEPPPGEG-NH2", "note": "[Example 333]", "Relative cAMP EC50": 0.265, "cAMP Rel EC50 (1% HSA)": 36.3}, {"binder": "Y[Aib]QGTFTSDYSI[αMeL]LDKQAAKQFVEWLIA[Aib]GPSSGEPPPGSG-NH2 (not fully specified (residue 20))", "note": "[Example 335]", "Relative cAMP EC50": 0.292, "cAMP Rel EC50 (1% HSA)": 46.7}, {"binder": "Y[Aib]QGTFTSDYSI[αMeL]LDKQAAKQFVEWLIA[Aib]GPSSGEPPPGTG-NH2 (not fully specified (residue 20))", "note": "[Example 336]", "Relative cAMP EC50": 0.306, "cAMP Rel EC50 (1% HSA)": 64.4}, {"binder": "Y[Aib]QGTFTSDYSK[αMeL]LDKKAQQAFIEYLIAGGPSSGEPPPSGD-NH2 (not fully specified (residue 17))", "note": "[Example 337]", "Relative cAMP EC50": 0.332, "cAMP Rel EC50 (1% HSA)": 99.1}, {"binder": "Y[Aib]QGT[αMePhe(2-F)]TSDYSKLLDKIAQKAFIQYLIEGGPSSGEPPPSEG-NH2 (not fully specified (residue 20))", "note": "[Example 338]", "Relative cAMP EC50": 0.0733, "cAMP Rel EC50 (1% HSA)": 10.9}, {"binder": "Y[Aib]QGT[αMePhe(2-F)]TSDYSKLLDKIAQKAFIEYLIEGGPSSGAPPPSEG-NH2 (not fully specified (residue 20))", "note": "[Example 339]", "Relative cAMP EC50": 0.101, "cAMP Rel EC50 (1% HSA)": 28.8}, {"binder": "Y[Aib]QGT[αMePhe(2-F)]TSDYSILLDKQAAKEFIEYLIEGGPSSGAPPPSEG-NH2 (not fully specified (residue 20))", "note": "[Example 340]", "Relative cAMP EC50": 0.189, "cAMP Rel EC50 (1% HSA)": 60.4}, {"binder": "Y[Aib]QGT[αMePhe(2-F)]TSD[Phe(4-CN)]SILLDKQAQKAFIQYLLEGGPSSGEPPPSEG-NH2 (not fully specified (residue 20))", "note": "[Example 341]", "Relative cAMP EC50": 0.213, "cAMP Rel EC50 (1% HSA)": 49.6}]}, {"target": "human glucagon receptor (human) (UniProt P47871)", "sequence (P47871 26-477)": "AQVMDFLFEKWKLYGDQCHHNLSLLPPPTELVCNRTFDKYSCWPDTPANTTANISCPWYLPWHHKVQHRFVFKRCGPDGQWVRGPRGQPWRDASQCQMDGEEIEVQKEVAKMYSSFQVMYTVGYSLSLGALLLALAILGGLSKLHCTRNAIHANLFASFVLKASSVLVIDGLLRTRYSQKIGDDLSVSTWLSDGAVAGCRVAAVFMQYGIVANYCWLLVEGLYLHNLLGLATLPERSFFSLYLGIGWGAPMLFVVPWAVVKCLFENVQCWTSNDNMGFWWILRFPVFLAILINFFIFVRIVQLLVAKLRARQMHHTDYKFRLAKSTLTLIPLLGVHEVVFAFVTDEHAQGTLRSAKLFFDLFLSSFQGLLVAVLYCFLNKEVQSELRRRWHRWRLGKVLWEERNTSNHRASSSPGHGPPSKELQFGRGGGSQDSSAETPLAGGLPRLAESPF", "assay": "cell-based or functional assay", "units": {"Relative cAMP EC50": "nM", "cAMP Rel EC50 (1% HSA)": "nM"}, "values": [{"binder": "Y[Aib]QGT[αMePhe(2-F)]TSDYSKLLDKIAQKAFIEYLIEGGPSSGEPPPSEG-NH2 (not fully specified (residue 20))", "note": "[Example 330]", "Relative cAMP EC50": 3.91, "cAMP Rel EC50 (1% HSA)": 398}, {"binder": "Y[Aib]QGT[αMePhe(2-F)]TSDYSILLDKQAAKAFIEYLIEGGPSSGEPPPSEG-NH2 (not fully specified (residue 20))", "note": "[Example 331]", "Relative cAMP EC50": 1.66, "cAMP Rel EC50 (1% HSA)": 339}, {"binder": "Y[Aib]QGTFTSDYSI[αMeL]LDKQAAK([AEEA-AEEA-γGlu-C20 diacid])QFVEWLIAGGPSSGEPPPAEG-NH2", "note": "[Example 332]", "Relative cAMP EC50": 11.8, "cAMP Rel EC50 (1% HSA)": 3340}, {"binder": "Y[Aib]QGTFTSDYSI[αMeL]LDKQAAK([AEEA-AEEA-γGlu-C20 diacid])QFVEWLIA[Aib]GPSSGEPPPGEG-NH2", "note": "[Example 333]", "Relative cAMP EC50": 7.09, "cAMP Rel EC50 (1% HSA)": 1410}, {"binder": "Y[Aib]QGTFTSDYSI[αMeL]LDKQAAKQFVEWLIA[Aib]GPSSGEPPPGSG-NH2 (not fully specified (residue 20))", "note": "[Example 335]", "Relative cAMP EC50": 6.11, "cAMP Rel EC50 (1% HSA)": 1410}, {"binder": "Y[Aib]QGTFTSDYSI[αMeL]LDKQAAKQFVEWLIA[Aib]GPSSGEPPPGTG-NH2 (not fully specified (residue 20))", "note": "[Example 336]", "Relative cAMP EC50": 7.05, "cAMP Rel EC50 (1% HSA)": 1740}, {"binder": "Y[Aib]QGTFTSDYSK[αMeL]LDKKAQQAFIEYLIAGGPSSGEPPPSGD-NH2 (not fully specified (residue 17))", "note": "[Example 337]", "Relative cAMP EC50": 5.95, "cAMP Rel EC50 (1% HSA)": 2950}, {"binder": "Y[Aib]QGT[αMePhe(2-F)]TSDYSKLLDKIAQKAFIQYLIEGGPSSGEPPPSEG-NH2 (not fully specified (residue 20))", "note": "[Example 338]", "Relative cAMP EC50": 4.02, "cAMP Rel EC50 (1% HSA)": 659}, {"binder": "Y[Aib]QGT[αMePhe(2-F)]TSDYSKLLDKIAQKAFIEYLIEGGPSSGAPPPSEG-NH2 (not fully specified (residue 20))", "note": "[Example 339]", "Relative cAMP EC50": 6.81, "cAMP Rel EC50 (1% HSA)": 1510}, {"binder": "Y[Aib]QGT[αMePhe(2-F)]TSDYSILLDKQAAKEFIEYLIEGGPSSGAPPPSEG-NH2 (not fully specified (residue 20))", "note": "[Example 340]", "Relative cAMP EC50": 2.02, "cAMP Rel EC50 (1% HSA)": 647}, {"binder": "Y[Aib]QGT[αMePhe(2-F)]TSD[Phe(4-CN)]SILLDKQAQKAFIQYLLEGGPSSGEPPPSEG-NH2 (not fully specified (residue 20))", "note": "[Example 341]", "Relative cAMP EC50": 10.7, "cAMP Rel EC50 (1% HSA)": 2930}]}]}
